The values that follow come from doi:10.1101/2022.06.04.494830.

In this experiment the target is EWS low-complexity domain (EWS^LCD, EWS 1-264) (human) (UniProt Q01844). Put plainly: co-sedimentation.
Sequence of EWS low-complexity domain (EWS^LCD, EWS 1-264) (human) (Q01844 1-264, one chain of several): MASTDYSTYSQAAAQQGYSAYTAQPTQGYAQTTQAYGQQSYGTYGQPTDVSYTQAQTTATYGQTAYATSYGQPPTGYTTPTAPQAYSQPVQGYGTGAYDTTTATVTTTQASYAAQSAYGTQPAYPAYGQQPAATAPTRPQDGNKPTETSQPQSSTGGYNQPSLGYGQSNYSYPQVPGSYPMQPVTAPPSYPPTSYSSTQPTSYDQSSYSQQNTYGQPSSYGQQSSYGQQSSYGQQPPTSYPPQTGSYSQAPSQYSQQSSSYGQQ

Take “FLI1 DNA-binding domain (FLI1^DBD) (domain or fragment)”: the percent of total FLI1^DBD in the pellet fraction was determined as 55%.
